Reference: patent publication US20210269542A1 (POTENZA THERAPEUTICS, published 2021)
Substitutions are numbered along the chain they refer to. Numbers in names are those of the source. Where two headings read alike, the source gives them in different places.

B1: ABP45 (antibody, human IgG1, kappa, N297A, V domains shown)
VH: QVQLVQSGAEVKKPGSSVKVSCKASGGTFSRGAISWVRQAPGQGLEWMGGIIPIEGTAYYAQKFQGRVTITADESTSTAYMELSSLRSEDTAVYYCARQSDYGLPRGMDVWGQGTTVTVSS
VL: DIQLTQSPSSVSASVGDRVTITCRASQGISSWLAWYQQKPGKAPKLLIYGASSLQSGVPSRFSGSGSGTDFTLTISSLQPEDFATYYCQQASLFPPTFGGGTKVEIKR
notes: IgG1 N297A, H1H2-optimized, non-TM
B2: ABP20 (antibody, human IgG4 S228P, kappa)
heavy: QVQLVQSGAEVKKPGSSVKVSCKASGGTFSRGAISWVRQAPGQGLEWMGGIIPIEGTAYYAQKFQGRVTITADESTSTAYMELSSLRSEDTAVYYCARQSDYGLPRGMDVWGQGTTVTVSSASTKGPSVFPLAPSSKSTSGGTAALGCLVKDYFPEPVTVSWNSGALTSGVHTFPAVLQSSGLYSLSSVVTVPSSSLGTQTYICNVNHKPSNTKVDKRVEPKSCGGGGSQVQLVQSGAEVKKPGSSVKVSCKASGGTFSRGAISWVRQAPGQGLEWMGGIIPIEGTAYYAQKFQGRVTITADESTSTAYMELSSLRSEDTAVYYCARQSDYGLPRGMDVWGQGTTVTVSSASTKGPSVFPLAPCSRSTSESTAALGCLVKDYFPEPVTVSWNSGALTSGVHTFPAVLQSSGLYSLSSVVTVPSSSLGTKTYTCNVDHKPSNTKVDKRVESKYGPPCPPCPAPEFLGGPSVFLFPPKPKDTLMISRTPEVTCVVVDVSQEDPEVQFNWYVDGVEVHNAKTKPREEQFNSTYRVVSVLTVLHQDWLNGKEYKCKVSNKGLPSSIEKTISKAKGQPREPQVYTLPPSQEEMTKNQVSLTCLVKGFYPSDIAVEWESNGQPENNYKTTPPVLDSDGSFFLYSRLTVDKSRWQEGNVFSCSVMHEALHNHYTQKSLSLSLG
light: DIQLTQSPSSVSASVGDRVTITCRASQGISSWLAWYQQKPGKAPKLLIYGASSLQSGVPSRFSGSGSGTDFTLTISSLQPEDFATYYCQQASLFPPTFGGGTKVEIKRTVAAPSVFIFPPSDEQLKSGTASVVCLLNNFYPREAKVQWKVDNALQSGNSQESVTEQDSKDSTYSLSSTLTLSKADYEKHKVYACEVTHQGLSSPVTKSFNRGEC
notes: TM format, N-terminal Fab: VH + IgG1 CH1 + GGGGS + VH + IgG4 S228P
B3: ABP26 (antibody, human IgG4 S228P, kappa)
heavy: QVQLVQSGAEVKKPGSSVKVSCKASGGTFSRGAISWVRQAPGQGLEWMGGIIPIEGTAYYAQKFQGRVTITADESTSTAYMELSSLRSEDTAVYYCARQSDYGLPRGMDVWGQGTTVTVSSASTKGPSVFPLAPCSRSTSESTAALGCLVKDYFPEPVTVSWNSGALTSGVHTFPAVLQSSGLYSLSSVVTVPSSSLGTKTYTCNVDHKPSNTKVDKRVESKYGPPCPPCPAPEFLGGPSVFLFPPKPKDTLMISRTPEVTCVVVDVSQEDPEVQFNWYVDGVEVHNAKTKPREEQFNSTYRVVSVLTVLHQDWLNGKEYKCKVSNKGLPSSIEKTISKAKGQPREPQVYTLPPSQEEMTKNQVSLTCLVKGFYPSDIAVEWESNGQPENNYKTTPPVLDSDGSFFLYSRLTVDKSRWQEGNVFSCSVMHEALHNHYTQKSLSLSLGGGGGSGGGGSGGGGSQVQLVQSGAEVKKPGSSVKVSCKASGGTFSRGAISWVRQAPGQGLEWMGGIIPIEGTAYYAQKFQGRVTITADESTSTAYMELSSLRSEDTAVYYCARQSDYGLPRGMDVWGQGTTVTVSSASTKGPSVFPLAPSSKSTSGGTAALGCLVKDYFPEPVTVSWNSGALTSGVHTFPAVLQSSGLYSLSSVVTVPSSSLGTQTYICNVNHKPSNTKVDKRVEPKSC
light: B2 light
B4: trimeric human GITR ligand (ligand, UniProt Q9UNG2 50-177, looked up)
chain: QLETAKEPCMAKFGPLPSKWQMASSEPPCVNKVSDWKLEILQNGLYLIYGQVAPNANYNDVAPFEVRLYKNKDMIQTLTNKSKIQNVGGTYELHVGDTIDLIFNSEHQVLKNNTYWGIILLANPQFIS
B5: ABP49 (antibody, human IgG1, kappa, N297A, V domains shown)
VH: QVQLQESGPGLVKPSQTLSLTCTVSGGSISSGGAVWSWIRQHPGKGLEWIGGIAYSGSTYYNPSLKSRVTISVDTSKNQFSLKLSSVTAADTAVYYCARDSVRGYGDYGGHHAFDIWGQGTMVTVSS
VL: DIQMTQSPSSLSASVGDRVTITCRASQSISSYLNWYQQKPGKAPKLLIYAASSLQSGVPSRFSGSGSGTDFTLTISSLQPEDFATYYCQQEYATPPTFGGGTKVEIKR
notes: as for B1
B6: ABP46 (antibody, human IgG1, kappa, N297A, V domains shown)
VH: QVQLVQSGAEVKKPGSSVKVSCKASGGTFSSYAISWVRQAPGQGLEWMGGIIPISGFANYAQKFQGRVTITADESTSTAYMELSSLRSEDTAVYYCAREGGHYYSGWPYWGQGTLVTVSS
VL: EIVLTQSPATLSLSPGERATLSCRASQSVSSYLAWYQQKPGQAPRLLIYDASNRATGIPARFSGSGSGTDFTLTISSLEPEDFAVYYCQQRLVFPPTFGGGTKVEIKR
notes: as for B1
B7: ABP47 (antibody, human IgG1, kappa, N297A, V domains shown)
VH: QVQLVQSGAEVKKPGSSVKVSCKASGGTFVRYAISWVRQAPGQGLEWMGGIIPIFGEAQYAQKFQGRVTITADESTSTAYMELSSLRSEDTAVYYCAREGYYYGALPYWGQGTLVTVSS
VL: B6 VL with R91H, L92S
notes: as for B1

Assays:
[1] = biological target: T1, human GITR expressed on cells (human, UniProt Q9Y5U5 26-241); experiment: cell-based or functional assay
T1 sequence: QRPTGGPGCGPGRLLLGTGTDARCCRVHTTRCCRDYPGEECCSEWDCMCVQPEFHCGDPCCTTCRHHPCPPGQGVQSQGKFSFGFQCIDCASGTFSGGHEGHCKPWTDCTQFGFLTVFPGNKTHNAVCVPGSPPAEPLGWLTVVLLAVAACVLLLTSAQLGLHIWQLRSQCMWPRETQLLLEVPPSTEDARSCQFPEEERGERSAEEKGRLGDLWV

[2] = biological target: T2, cynomolgus monkey GITR expressed on HT1080 cells (cynomolgus monkey); experiment: cell-based or functional assay
T2 chain: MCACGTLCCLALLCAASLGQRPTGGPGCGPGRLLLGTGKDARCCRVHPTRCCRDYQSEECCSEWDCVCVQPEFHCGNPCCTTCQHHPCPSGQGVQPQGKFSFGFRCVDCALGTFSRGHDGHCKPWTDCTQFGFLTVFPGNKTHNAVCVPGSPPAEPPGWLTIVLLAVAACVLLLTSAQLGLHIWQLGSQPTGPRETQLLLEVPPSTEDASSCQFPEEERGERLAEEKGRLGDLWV

human GITR-Fc = biological target: T3, human GITR-Fc (human, UniProt Q9Y5U5 26-162); experiment: BLI Octet RED384, ABP on AHQ sensor, 100 nM antigen, single concentration;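 further: association and dissociation each tracked over 180 s, with dissociation run in antigen-free buffer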
T3 construct: also called recombinant hGITR; wild type human GITR-Fc
T3 sequence: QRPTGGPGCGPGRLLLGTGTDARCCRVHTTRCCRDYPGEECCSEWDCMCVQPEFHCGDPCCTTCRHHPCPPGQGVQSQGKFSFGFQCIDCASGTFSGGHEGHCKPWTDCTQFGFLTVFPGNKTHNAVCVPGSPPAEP
Description: (§1) The sensors were quenched by dipping into an unrelated human IgG1 antibody to prevent non-specific binding of GITR-Fc antigens to the sensor. The sensors were equilibrated in assay buffer for 30 minutes. Baseline was established by dipping the sensors into assay buffer for 60 seconds. Association was monitored for 180 seconds in 100 nM of recombinant antigens, and dissociation was followed for 180 seconds in buffer alone. KD was determined using the kinetic function of the FORTEBIO® Analysis Software using a 1:1 binding model.

[3] = biological target: T1, human GITR expressed on cells; experiment: cell-based or functional assay; remark: listed apart in the source
cyno GITR-Fc = biological target: T4, cyno GITR-Fc (cynomolgus monkey); experiment: BLI Octet RED384, ABP on AHQ sensor, 100 nM antigen, single concentration;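 further: association and dissociation each tracked over 180 s, with dissociation run in antigen-free buffer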
T4 construct: also called cGITR; cynomolgus GITR
T4 chain: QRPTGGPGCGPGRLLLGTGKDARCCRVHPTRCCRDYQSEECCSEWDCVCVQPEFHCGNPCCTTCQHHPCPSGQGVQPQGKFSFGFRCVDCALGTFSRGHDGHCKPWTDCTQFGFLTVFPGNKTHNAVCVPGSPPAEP
Description: as §1

[4] = biological target: T1, human GITR expressed on cells; experiment: cell-based or functional assay; remark: listed apart in the source
[5] = biological target: T2, cynomolgus monkey GITR expressed on …; experiment: cell-based or functional assay
[6] = biological target: T1, human GITR expressed on cells; experiment: cell-based or functional assay; remark: listed apart in the source
[7] = biological target: T2, cynomolgus monkey GITR expressed on …; experiment: cell-based or functional assay
[8] = biological target: T1, human GITR expressed on cells; experiment: cell-based or functional assay; remark: listed apart in the source
[9] = biological target: T2, cynomolgus monkey GITR expressed on …; experiment: cell-based or functional assay
[10] = biological target: T1, human GITR expressed on cells; experiment: cell-based or functional assay; remark: listed apart in the source

Binder	EC50 in human HT1080 (IL-8 induction), n = 2 [1] [nM]	EC50 in cynomolgus HT1080 (IL-8 induction), n = 1 [2] [nM]	Kd (human GITR-Fc) [nM]	Average EC50 in human HT1080 (IL-8 induction) [3] [nM]	Kd (cyno GITR-Fc) [nM]	other results
B1	10.5	15.1	112			
B2			4.4	0.63	5.2	
B3			5.1	0.63	5.1	
B4				0.37		Average EC50 in human HT1080 (IL-8 induction) [4]: 0.12 nM; Average EC50 in cynomolgus HT1080 (IL-8 induction) [5]: 0.076 nM; Average EC50 in human HT1080 (IL-8 induction) [6]: 0.43 nM; Average EC50 in cynomolgus HT1080 (IL-8 induction) [7]: 0.17 nM; EC50 in human HT1080 (IL-8 induction) [8]: 0.4 nM; EC50 in cynomolgus HT1080 (IL-8 induction) [9]: 0.2 nM; EC50, Jurkat cells expressing human GITR (run with ABP 1) [10]: 0.9 nM; EC50, Jurkat cells expressing human GITR (run with ABP 2) [10]: 0.91 nM; EC50, Jurkat cells expressing human GITR (run with ABP 3) [10]: 0.85 nM; EC50, Jurkat cells expressing human GITR (run with ABP 4) [10]: 1.13 nM; EC50, Jurkat cells expressing human GITR (run with ABP 5) [10]: 1.01 nM; EC50, Jurkat cells expressing human GITR (run with ABP 6) [10]: 0.9 nM; EC50, Jurkat cells expressing human GITR (run with ABP 7) [10]: 0.81 nM; EC50, Jurkat cells expressing human GITR (run with ABP 8) [10]: 0.89 nM
B5	2.7	65.8	63.5			binding result (cyno GITR-Fc): no binding (tested: 100 nM)
B6	1.2	6.9	59.8		111	
B7	4.1	11.8	44.3		88.1	
